According to PMC11561318 (Nature Communications, 2024):

How the values were obtained:
[1] = target: His-tagged NanoLuc-PP1α-HaloTag sensor (PP1-WT) (human, UniProt P62136 1-330, NanoBRET 618 ligand on the HaloTag); assay: FRET or BRET
LgBiT-PP1α^ΔC = LgBiT-PP1α^ΔC (human, UniProt P62136 1-298); assay: split reporter
LgBiT-PP1α^WT = LgBiT-PP1α^WT (human, UniProt P62136 1-330); assay: split reporter
Sequence of LgBiT-PP1α^WT (P62136 whole entry): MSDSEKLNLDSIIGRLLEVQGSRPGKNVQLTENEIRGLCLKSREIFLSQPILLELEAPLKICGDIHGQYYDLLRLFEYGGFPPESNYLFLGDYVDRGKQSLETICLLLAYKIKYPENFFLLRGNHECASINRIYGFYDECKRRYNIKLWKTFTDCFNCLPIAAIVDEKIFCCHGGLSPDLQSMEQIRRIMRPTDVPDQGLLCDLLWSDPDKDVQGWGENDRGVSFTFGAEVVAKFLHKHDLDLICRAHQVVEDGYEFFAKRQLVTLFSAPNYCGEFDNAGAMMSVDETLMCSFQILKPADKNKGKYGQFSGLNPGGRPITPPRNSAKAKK

Sequence of His-tagged NanoLuc-PP1α-HaloTag sensor (PP1-WT) (P62136 whole entry): as above
Sequence of LgBiT-PP1α^ΔC (P62136 1-298, stated change not applied): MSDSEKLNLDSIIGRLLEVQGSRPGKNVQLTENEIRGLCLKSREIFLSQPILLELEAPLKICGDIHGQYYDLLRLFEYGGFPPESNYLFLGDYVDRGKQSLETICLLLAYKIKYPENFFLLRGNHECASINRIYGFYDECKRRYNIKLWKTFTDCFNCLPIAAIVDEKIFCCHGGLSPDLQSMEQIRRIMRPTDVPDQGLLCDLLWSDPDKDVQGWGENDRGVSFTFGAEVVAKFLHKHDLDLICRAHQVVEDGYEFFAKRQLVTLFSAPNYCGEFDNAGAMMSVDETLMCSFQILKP

Binder | binding result [1] | binding result (LgBiT-PP1α^ΔC) | binding result (LgBiT-PP1α^WT)
HIS-ASPP1-(867–1090) (domain or fragment) RTNLKKPNSERTGHGLRVRFNPLALLLDASLEGEFDLVQRIIYEVEDPSKPNDEGITPLHNAVCAGHHHIVKFLLDFGVNVNAADSDGWTPLHCAASCNSVHLCKQLVESGAAIFASTISDIETAADKCEEMEEGYIQCSQFLYGVQEKLGVMNKGVAYALWDYEAQNSDELSFHEGDALTILRRKDESETEWWWARLGDREGYVPKNLLGLYPRIKPRQRTLA | binds |  | 
HIS-R2-WT (natural protein) MAASTASHRPIKGILKNKTSTTSSMVASAEQPRGNVDEELSKKSQKWDEMNILATYHPADKDYGLMKIDEPSTPYHSMMGDDEDACSDTEATEAMAPDILARKLAAAEGLEPKYRIQEQESSGEEDSDLSPEEREKKRQFEMKRKLHYNEGLNIKLARQLISKDLHDDDEDEEMLETADGESMNTEESNQGSTPSDQQQNKLRSS | binds | binds | binds
